Laboratory results from patent publication US20230035403A1, “Method For Determining Responsiveness To Prostate Cancer Treatment” (Janssen Biotech, Inc., priority 2020, published 2023).

B1: P97 9-mer … (peptide)
peptide: LMAQRLLLR
modifications: here or on the partner: biotinylated heavy chain
B2: P73 9-mer … (peptide)
peptide: LLERNSFEV
modifications: here or on the partner: biotinylated heavy chain
B3: P58 9-mer … (peptide)
peptide: HVPKILSGK
modifications: here or on the partner: biotinylated heavy chain
B4: P82 9-mer … (peptide)
peptide: RVGNCKHLK
modifications: here or on the partner: biotinylated heavy chain
B5: P60 9-mer … (peptide)
peptide: YLRRQKRLK
modifications: here or on the partner: biotinylated heavy chain
B6: P98 9-mer … (peptide)
peptide: IVWWCPMSR
modifications: here or on the partner: biotinylated heavy chain
B7: P56 9-mer … (peptide)
peptide: RAKCKFSIL
modifications: here or on the partner: biotinylated heavy chain
B8: P19 9-mer … (peptide)
peptide: IPVLTRWPL
modifications: here or on the partner: biotinylated heavy chain
B9: P61 9-mer … (peptide)
peptide: CYLGRQKRF
modifications: here or on the partner: biotinylated heavy chain
B10: P46 9-mer … (peptide)
peptide: CPMSRLRLA
modifications: here or on the partner: biotinylated heavy chain
B11: P22 9-mer … (peptide)
peptide: QLIAMDSAI
modifications: here or on the partner: biotinylated heavy chain
B12: P87 9-mer … (peptide)
peptide: FLFLLLPLS
modifications: here or on the partner: biotinylated heavy chain

target: HLA-B*08:01 (human); assay: UV-induced peptide exchange, HLA class I ELISA; Pos peptide = 100%; conditions: remark: other sources report otherwise

exchange rate with Pos peptide | Binder
2.7% | B1
2.6% | B2
5.3% | B3
1.4% | B4
10.2% | B5
2.4% | B6
38% | B7
14.5% | B8
3.6% | B9
14.5% | B10
3.9% | B11
3.1% | B12
